Reference: PMC4498735, “Fibulin-1C, C1 Esterase Inhibitor and Glucose Regulated Protein 75 Interact with the CREC Proteins, Calumenin and Reticulocalbin” (PLoS ONE, 2015)

T1: GST-fibulin-1C (UniProt P23142-4 33-683)
T1 construct: fibulin-1C, amino acids 33-683, cloned into pGEX-4T3; the C variant has 683 amino acids; also called recombinant GST-fibulin-1C; source: E. coli, purified (glutathione-sepharose, Superdex 200)
T1 sequence (looked up): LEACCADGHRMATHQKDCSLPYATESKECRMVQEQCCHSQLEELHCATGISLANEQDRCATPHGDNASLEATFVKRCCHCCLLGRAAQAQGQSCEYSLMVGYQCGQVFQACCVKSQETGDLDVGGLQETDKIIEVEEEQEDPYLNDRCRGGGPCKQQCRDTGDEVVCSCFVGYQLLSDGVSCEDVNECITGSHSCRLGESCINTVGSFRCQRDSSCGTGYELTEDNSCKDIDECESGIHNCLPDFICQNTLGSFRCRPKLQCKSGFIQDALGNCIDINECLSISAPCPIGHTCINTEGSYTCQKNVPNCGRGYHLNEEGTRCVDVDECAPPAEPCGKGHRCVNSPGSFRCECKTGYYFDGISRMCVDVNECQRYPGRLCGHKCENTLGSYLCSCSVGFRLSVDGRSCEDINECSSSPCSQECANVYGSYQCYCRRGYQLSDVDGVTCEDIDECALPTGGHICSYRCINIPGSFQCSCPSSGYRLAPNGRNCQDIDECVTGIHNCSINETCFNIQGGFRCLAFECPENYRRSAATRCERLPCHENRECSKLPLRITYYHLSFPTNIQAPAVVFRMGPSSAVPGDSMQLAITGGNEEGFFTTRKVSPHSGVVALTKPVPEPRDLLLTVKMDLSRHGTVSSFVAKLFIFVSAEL

T2: C1 esterase inhibitor (commercial, Calbiochem) (UniProt P05155 23-500)
T2 construct: source: bought: Calbiochem
T2 sequence (looked up): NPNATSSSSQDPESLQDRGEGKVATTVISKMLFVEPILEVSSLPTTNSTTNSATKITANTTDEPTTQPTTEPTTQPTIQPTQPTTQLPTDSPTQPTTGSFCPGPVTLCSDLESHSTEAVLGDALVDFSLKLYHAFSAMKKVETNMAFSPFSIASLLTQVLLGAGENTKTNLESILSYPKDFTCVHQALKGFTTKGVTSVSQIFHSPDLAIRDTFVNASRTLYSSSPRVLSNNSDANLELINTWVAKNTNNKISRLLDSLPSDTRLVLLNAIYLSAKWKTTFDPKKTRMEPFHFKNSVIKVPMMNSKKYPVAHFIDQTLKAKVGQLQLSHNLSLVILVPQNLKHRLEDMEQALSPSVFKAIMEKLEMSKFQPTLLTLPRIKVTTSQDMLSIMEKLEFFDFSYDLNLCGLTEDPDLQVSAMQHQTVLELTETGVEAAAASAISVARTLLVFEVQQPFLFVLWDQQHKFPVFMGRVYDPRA


Columns and labels:
Settings in all cases: both partners purified
GST-fibulin-1C [1] = biological target: T1, GST-fibulin-1C; assay: SPR; reticulocalbin immobilised; buffer with EDTA (10 mM Hepes, 150 mM NaCl, 20 mM EDTA and 0.005% Tween 20 pH 7.4)
[2] = biological target: T3, recombinant GST-grp75 (AAH00478.1) (human, UniProt P38646 47-679); assay: SPR; Biacore 2000/3000, CM5 chip, calumenin, GST-calumenin, reticulocalbin or GST amine-coupled; 25°C; 10 mM HEPES, 150 mM NaCl, 5 mM CaCl2, 1 mM EGTA, 0.005% Tween 20, pH 7.4; 1:1 Langmuir model; apparent KD from koff/kon
T3 construct: also called glucose regulated protein 75; mortalin; source: bought: Abnova (Taipei, Taiwan)

GST-fibulin-1C [3] = biological target: T1, GST-fibulin-1C; assay: as above
[4] = biological target: T2, C1 esterase inhibitor (commercial, …); assay: as above

T3 sequence (P38646 47-679): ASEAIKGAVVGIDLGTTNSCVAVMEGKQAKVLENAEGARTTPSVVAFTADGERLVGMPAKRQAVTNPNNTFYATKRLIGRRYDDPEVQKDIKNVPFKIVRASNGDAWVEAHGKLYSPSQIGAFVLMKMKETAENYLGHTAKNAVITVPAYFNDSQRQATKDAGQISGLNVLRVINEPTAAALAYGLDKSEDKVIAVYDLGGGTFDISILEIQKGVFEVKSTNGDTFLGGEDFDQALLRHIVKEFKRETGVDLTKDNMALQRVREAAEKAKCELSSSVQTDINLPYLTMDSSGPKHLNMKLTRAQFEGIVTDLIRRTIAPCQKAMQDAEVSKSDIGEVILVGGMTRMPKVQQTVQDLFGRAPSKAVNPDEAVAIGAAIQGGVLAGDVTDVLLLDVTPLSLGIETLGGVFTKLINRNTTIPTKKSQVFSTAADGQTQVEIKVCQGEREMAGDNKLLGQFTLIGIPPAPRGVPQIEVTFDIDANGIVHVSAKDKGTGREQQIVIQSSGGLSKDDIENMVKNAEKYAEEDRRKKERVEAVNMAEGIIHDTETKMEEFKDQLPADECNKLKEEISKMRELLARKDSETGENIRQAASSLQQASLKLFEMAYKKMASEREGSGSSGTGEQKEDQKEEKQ

| Kd (GST-fibulin-1C [1]) [nM] | Kd [2] [nM] | Kd (GST-fibulin-1C [3]) [nM] | Kd [4] [nM] | Binder |
| --- | --- | --- | --- | --- |
| ~50 | ~3 | ~60 | ~1000 | recombinant reticulocalbin (natural protein, Expressed in E. coli as a GST fusion; GST removed with thrombin. Species and limits are not printed: mouse is inferred because the plasmid came from Dr. Ozawa, whose original reticulocalbin clone was) KPTVRKERVVRPDSELGERPPEDNQSFQYDHEAFLGKEDSKTFDQLSPDESKERLGKIVDRIDSDGDGLVTTEELKLWIKRVQKRYIYDNVAKVWKDYDRDKDEKISWEEYKQATYGYYLGNPAEFHDSSDHHTFKKMLPRDERRFKASDLDGDLTATREEFTAFLHPEEFEHMKEIVVLETLEDIDKNGDGFVDQDEYIADMFSHEDNGPEPDWVLSEREQFNDFRDLNKDGKLDKDEIRHWILPQDYDHAQAEARHLVYESDKNKDEMLTKEEILDNWNMFVGSQATNYGEDLTKNHDEL |
|  |  | ~50 | ~150 | GST-calumenin (natural protein, UniProt O43852 20-315, looked up, source: E. coli, purified (glutathione-sepharose, Superdex 200)) KPTEKKDRVHHEPQLSDKVHNDAQSFDYDHDAFLGAEEAKTFDQLTPEESKERLGKIVSKIDGDKDGFVTVDELKDWIKFAQKRWIYEDVERQWKGHDLNEDGLVSWEEYKNATYGYVLDDPDPDDGFNYKQMMVRDERRFKMADKDGDLIATKEEFTAFLHPEEYDYMKDIVVQETMEDIDKNADGFIDLEEYIGDMYSHDGNTDEPEWVKTEREQFVEFRDKNRDGKMDKEETKDWILPSDYDHAEAEARHLVYESDQNKDGKLTKEEIVDKYDLFVGSQATDFGEALVRHDEF |
|  | ~7 |  |  | recombinant calumenin (immobilised; construct not told) (natural protein, UniProt O43852 20-315, looked up, calumenin; also called immobilised calumenin; source: E. coli, purified) KPTEKKDRVHHEPQLSDKVHNDAQSFDYDHDAFLGAEEAKTFDQLTPEESKERLGKIVSKIDGDKDGFVTVDELKDWIKFAQKRWIYEDVERQWKGHDLNEDGLVSWEEYKNATYGYVLDDPDPDDGFNYKQMMVRDERRFKMADKDGDLIATKEEFTAFLHPEEYDYMKDIVVQETMEDIDKNADGFIDLEEYIGDMYSHDGNTDEPEWVKTEREQFVEFRDKNRDGKMDKEETKDWILPSDYDHAEAEARHLVYESDQNKDGKLTKEEIVDKYDLFVGSQATDFGEALVRHDEF |
